T1: NdhA (Arabidopsis thaliana (endogenous in the …, UniProt Q37165 1-360))
T1 sequence (looked up): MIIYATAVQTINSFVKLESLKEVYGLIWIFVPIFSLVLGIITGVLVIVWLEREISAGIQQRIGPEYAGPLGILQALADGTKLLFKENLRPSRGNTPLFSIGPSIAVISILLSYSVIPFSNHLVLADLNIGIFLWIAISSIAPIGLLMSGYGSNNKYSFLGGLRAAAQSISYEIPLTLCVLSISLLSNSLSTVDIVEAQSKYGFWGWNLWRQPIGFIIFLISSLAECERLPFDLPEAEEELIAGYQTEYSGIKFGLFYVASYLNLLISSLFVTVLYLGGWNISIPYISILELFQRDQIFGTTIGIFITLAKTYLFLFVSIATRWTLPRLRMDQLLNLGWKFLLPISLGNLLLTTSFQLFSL

B1: Lhca2 (natural protein, UniProt Q9SYW8 44-257, looked up)
chain: RAVAADPDRPIWFPGSTPPEWLDGSLPGDFGFDPLGLSSDPDSLKWNVQAEIVHCRWAMLGAAGIFIPEFLTKIGILNTPSWYTAGEQEYFTDKTTLFVVELILIGWAEGRRWADIIKPGSVNTDPVFPNNKLTGTDVGYPGGLWFDPLGWGSGSPAKLKELRTKEIKNGRLAMLAVMGAWFQHIYTGTGPIDNLFAHLADPGHATIFAAFTPK
B2: PnsL2 (natural protein, UniProt Q9XI73 69-190, looked up)
chain: WGTRSFIKEKYFMPGLSPEDAAARIKQTAEGLRDMREMLDHMSWRYVIFYIRLKQAYLSQDLTNAMNILPESRRNDYVQAANELVENMSELDFYVRTPKVYESYLYYEKTLKSIDNVVEFLA
B3: PnsL5 (natural protein)
chain: not shown
B4: PnsB3 (natural protein, UniProt Q9LU21 49-204, looked up)
chain: AISTAPASQPPAADEPDEPPAVDFAFVHSVLLPDGTPDVHWRRANGGQKLRDIMLDSNIELYGPYSKPLSNCAGVGTCATCMVEIVNGKELLNPRTDIEKEKLKRKPKNWRLACQTNVGNPDSTGLVVIQQLPEWKAHEWNIPKNIPNDDDLETST
B5: PnsB2 (natural protein, UniProt Q94AQ8 18-348, looked up)
chain: SSISAPQTQTINTEKLEDKFGRKGIKFSESNNIPMVELKVRNGSSLKLSLSDAHVLSYKPKVYWKDEGFEEVLYTVDGDESRGGVGVVIVNGEEPKGGSSVISGCDWSVKDTDSDAIDALQIELSCTAGVLDITYIVSLYPVSMATALVVKNNGRKPVTLKPGIMSYLRFKKRSGAGIQGLKGCSYCPNPPLSSPFELLSPSEAMKAESSGWFGSEEGEKPGIWAVEDSVITLLEKKMSRIYGAPPAERLKAVYNTPPSKFETIDQGRGLFFRMIRIGFEEMYVGSPGSMWDKYGKQHYFVCTGPTSMLVPVDVASGETWRGAMVIEHDNL
B6: PnsL1 (natural protein, UniProt O80634 81-238, looked up)
chain: AEEIPKSYSPFVDREDGYSYYYPSDWREFDFRAHDSAFKDRYLQLQNVRVRFIPTEKNDIHEVGPMEEVVYDLVKHKFAAPNQVATIYDMKERVEDGKNYYTFEYGLRTPIYATTSFATVAVGNNRYYTLIVGANERRWRKVKKQLQVVADSLKILQI
B7: PnsB1 (natural protein, UniProt Q9S9N6 45-461, looked up)
chain: VNLKKKNNPWLDPFDSGEDPDNEYGSLFADGKQDEDPRPPDNPDNPYGFLKFPKGYTVELASLPLKIRGDVRRCCCVISGGVYENLLFFPTIQLIKDRYPGVQVDILTTERGKQTYELNKNVRWANVYDPDDHWPEPAEYTDMIGLLKGRYYDMVLSTKLAGLGHAAFLFMTTARDRVSYIYPNVNSAGAGLMLSETFTAENTNLSELGYSMYTQMEDWLGRPFRSVPRTPLLPLRVSISRKVKEVVAAKYRNAGAVTGKFIVIHGIESDSKASMQSKGDADSLLSLEKWAKIIKGVRGFKPVFVIPHEKERENVEDFVGDDTSIVFITTPGQLAALINDSAGVIATNTAAIQLANARDKPCIGLFSSEEKGKLFVPYAEEKSNCVIIASKTGKLADIDIGTVKNAMQVFEGSLALV
B8: NdhD (natural protein, UniProt P26288 1-500, looked up)
chain: MNDFPWLTIIVVFPISAGSLMLFLPHRGNKVNKWYTICICILELLLTTYAFCYNFKMDDPLIQLSEDYKWIDFFDFYWRMGIDGLSIGTILLTGFITTLATLAAFPVTRDSRFFHFLMLAMYSGQIGSFSSRDLLLFFIMWELELIPVYLLLSMWGGKKRLYSATKFILYTAGSSIFLLIGVLGISLYGSNEPTLNLELLANKSYPVTLEILFYIGFLIAFAVKSPIIPLHTWLPDTHGEAHYSTCMLLAGILLKMGAYGLVRINMELLPHAHSMFSPWLLVVGTIQIIYAASTSPGQRNLKKRIAYSSVSHMGFIIIGISSITDPGLNGAILQIISHGFIGAALFFLAGTSYDRIRLVYLDEMGGMAISIPKIFTMFTILSMASLALPGMSGFIAEFIVFFGIITSQKYFLISKIFIIFVMAIGMILTPIYLLSMLRQMFYGYKLINIKNFSFFDSGPRELFLSISILLPIIGIGIYPDFVLSLASDKVESILSNYFYG
B9: Lhca5 (natural protein, UniProt Q9C639 33-256, looked up)
chain: AAGGGINPTVAVERATWLPGLNPPPYLDGNLAGDYGFDPLGLGEDPESLKWYVQAELVHSRFAMLGVAGILFTDLLRTTGIRNLPVWYEAGAVKFDFASTKTLIVVQFLLMGFAETKRYMDFVSPGSQAKEGSFFFGLEAALEGLEPGYPGGPLLNPLGLAKDVQNAHDWKLKEIKNGRLAMMAMLGFFVQASVTHTGPIDNLVEHLSNPWHKTIIQTLFTSTS
B10: Lhca6 (natural protein, UniProt Q8LCQ4 34-270, looked up)
chain: SSTGGRLMRERLVVVRAGKEVSSVCEPLPPDRPLWFPGSSPPEWLDGSLPGDFGFDPLGLGSDPDTLKWFAQAELIHSRWAMLAVTGIIIPECLERLGFIENFSWYDAGSREYFADSTTLFVAQMVLMGWAEGRRWADLIKPGSVDIEPKYPHKVNPKPDVGYPGGLWFDFMMWGRGSPEPVMVLRTKEIKNGRLAMLAFLGFCFQATYTSQDPIENLMAHLADPGHCNVFSAFTSH

Experiments:
Assay in all cases: cryo-EM structure
NdhF = NdhF (Arabidopsis thaliana (endogenous in the …, UniProt P56752 1-746))
Sequence of NdhF (Arabidopsis thaliana (P56752 whole entry): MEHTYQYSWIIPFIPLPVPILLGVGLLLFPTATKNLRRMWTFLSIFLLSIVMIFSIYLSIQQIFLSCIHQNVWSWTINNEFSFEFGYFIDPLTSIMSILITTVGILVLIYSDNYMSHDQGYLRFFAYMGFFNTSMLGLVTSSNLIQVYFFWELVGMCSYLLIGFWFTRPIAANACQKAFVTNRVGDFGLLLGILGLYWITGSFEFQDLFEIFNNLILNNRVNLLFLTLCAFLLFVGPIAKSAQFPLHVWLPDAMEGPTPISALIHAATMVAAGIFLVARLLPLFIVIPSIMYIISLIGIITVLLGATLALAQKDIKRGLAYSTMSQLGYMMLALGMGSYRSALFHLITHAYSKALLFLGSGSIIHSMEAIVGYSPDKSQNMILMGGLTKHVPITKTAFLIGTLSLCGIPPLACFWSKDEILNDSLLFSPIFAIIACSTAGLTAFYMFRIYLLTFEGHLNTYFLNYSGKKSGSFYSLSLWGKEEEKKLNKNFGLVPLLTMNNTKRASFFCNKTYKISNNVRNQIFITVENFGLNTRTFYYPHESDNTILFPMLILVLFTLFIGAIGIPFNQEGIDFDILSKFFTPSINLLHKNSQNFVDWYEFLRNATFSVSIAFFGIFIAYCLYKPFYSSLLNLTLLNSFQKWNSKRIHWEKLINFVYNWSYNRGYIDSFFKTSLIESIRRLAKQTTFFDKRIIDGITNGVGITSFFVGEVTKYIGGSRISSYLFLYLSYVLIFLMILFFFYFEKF

NdhA = target: T1, NdhA
PnsL1 = target: B6
NdhD = target: B8
PnsB2 = target: B5
PnsB1 = target: B7

Binder: B1
binding result (NdhF): binds

Binder: B2
binding result (NdhA): binds
binding result (PnsL1): binds

Binder: B3
binding result (NdhD): binds

Binder: B4
binding result (NdhF): binds
binding result (PnsB2): binds
binding result (PnsB1): binds

Binder: B5
binding result (NdhF): binds

Binder: B6
binding result (NdhA): binds

Binder: B7
binding result (NdhD): binds
binding result (NdhF): binds

Binder: B8
binding result (NdhF): binds

Binder: B9
binding result (PnsB1): binds

Binder: B10
binding result (NdhF): binds
binding result (PnsB2): binds
